The text below walks through data of publication PMC10144703, “Molecular Mechanism of Sirtuin 1 Inhibition by Human Immunodeficiency Virus 1 Tat Protein” (Life, 2023).

The target of the assay is human full-length Sirt1 (human) (UniProt Q96EB6).
Chain of human full-length Sirt1 (human) (Q96EB6 whole entry): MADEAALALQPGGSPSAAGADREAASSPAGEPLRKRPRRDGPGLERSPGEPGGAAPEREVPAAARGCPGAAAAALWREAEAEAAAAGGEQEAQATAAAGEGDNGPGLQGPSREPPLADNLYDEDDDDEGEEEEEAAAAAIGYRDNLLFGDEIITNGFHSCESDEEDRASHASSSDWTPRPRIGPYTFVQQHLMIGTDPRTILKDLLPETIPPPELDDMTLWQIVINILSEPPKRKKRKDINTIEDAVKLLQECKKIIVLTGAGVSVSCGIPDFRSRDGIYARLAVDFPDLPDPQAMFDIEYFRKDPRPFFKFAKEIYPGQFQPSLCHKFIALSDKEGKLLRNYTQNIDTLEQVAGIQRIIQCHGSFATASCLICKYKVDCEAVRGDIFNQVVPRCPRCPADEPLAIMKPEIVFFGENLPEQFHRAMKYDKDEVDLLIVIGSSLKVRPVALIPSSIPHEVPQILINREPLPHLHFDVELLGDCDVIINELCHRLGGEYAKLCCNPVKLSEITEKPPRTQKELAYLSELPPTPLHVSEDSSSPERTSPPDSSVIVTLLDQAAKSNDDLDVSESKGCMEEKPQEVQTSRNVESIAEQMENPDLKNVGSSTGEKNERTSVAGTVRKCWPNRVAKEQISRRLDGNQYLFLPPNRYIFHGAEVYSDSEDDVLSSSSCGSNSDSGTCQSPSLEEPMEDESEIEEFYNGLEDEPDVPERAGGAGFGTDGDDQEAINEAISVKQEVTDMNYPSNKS

In turn, “Tat-Cys^−-(1–63) (from UniProt P12506 1-63) (domain or fragment)” showed an inhibition of fl-Sirt1 in the FdL assay at 100 µM FdL-1; IC50 of 10 µM.

On to “Tat-Cys^−-(21–63) (from UniProt P12506 21-63) (domain or fragment)”, for which the inhibition of fl-Sirt1 in the FdL assay at 100 µM FdL-1; potency (IC50) was determined as 30 µM.
